Earlier results as cited in article PMC10955226.

Target: WWC1 WW tandem (Homo sapiens) (UniProt Q8IX03)
UniProt Q8IX03, sequence (Q8IX03 6-86): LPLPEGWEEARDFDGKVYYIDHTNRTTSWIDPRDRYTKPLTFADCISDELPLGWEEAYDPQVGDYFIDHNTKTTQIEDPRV

Kd: 58 nM
Substance: JCAD PPxY motifs (from UniProt Q9P266)
